In patent US20250270304A1 (PHENOMIC AI, published 2025):

How the values were obtained:
Assay in all cases: ELISA, coated antigen, OD450
[1] = target: T1, Inhibin A (Homo sapiens (Human), UniProt P05111 233-366; P08476 311-426)
T1 sequence 1: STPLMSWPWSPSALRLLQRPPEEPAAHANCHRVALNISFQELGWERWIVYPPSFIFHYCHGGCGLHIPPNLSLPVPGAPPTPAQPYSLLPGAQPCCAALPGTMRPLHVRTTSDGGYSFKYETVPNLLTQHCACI
T1 sequence 2: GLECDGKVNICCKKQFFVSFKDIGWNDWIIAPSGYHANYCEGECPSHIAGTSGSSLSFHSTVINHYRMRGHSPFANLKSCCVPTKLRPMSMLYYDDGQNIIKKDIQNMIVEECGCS
Experimental: (§1) Antibodies were re-expressed in 40 mL cultures of Expi293 cells and purified using protein G magnetic sepharose beads (Cytiva, Marlborough, MA) to provide larger quantities for secondary screening. Secondary screening included dose responses in both functional assays described above (SMAD nuclear localization and fibroblast activations assays) as well as in binding assays to the same antigens listed in Table 3. Plates were coated with 25 μL of 3 μg/mL antigen in 384-well Maxisorp plates overnight at 4° C. with agitation. The next day, the samples in the plates were blocked with 70 μL blocking buffer (PBS+1% BSA+0.1% Tween-20) for 2 hours at room temperature. Plates were then washed three times with 100 μL of wash buffer (PBS+0.1% Tween-20). Primary antibodies in Expi293 expression medium were diluted 1:3 in blocking buffer, 25 μL added per well, and the plates were incubated for an hour at room temperature with agitation. Plates were then washed three times and 25 μL of secondary antibody (goat anti-Human IgG, HRP conjugated; Jackson Immunoresearch) diluted 1:5000 in blocking buffer was added for 30 minutes at room temperature. The wells in the plates were washed six times with wash buffer and TMB substrate was added followed by 1 M H3PO4.

[2] = target: T2, Latent Activin A (human, UniProt P08476 21-426, limits assumed)
T2 construct: also called INHBA latent
T2 sequence: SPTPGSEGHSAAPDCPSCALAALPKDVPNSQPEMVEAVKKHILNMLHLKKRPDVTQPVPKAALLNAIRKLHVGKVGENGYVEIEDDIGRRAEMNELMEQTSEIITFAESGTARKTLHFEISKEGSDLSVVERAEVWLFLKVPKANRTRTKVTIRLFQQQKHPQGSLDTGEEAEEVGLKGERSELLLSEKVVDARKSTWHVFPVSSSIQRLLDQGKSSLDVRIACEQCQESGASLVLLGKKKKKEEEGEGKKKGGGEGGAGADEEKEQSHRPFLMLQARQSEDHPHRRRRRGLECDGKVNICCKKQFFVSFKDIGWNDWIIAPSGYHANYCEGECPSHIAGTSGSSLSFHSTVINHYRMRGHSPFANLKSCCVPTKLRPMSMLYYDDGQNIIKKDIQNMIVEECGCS
Experimental: as §1

[3] = target: T3, Activin B (Homo sapiens (Human), UniProt P09529 293-407)
T3 construct: also called Mature Activin B; mature Activin B
T3 sequence: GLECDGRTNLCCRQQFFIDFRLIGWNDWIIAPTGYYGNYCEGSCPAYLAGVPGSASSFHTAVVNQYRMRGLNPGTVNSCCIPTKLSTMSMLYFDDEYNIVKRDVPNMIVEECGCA
Experimental: as §1

[4] = target: T4, Mature Activin A (human, UniProt P08476 311-426)
T4 construct: also called active Activin A; INHBA mature
T4 sequence: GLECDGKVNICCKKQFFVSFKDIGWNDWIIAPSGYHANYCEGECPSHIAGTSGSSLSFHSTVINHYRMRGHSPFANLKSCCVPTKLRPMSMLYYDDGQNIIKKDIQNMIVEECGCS
Experimental: as §1

| Binder | fold-change of OD 450 over negative control (BSA) [1] | fold-change of OD 450 over negative control (BSA) [2] | fold-change of OD 450 over negative control (BSA) [3] | fold-change of OD 450 over negative control (BSA) [4] |
| --- | --- | --- | --- | --- |
| AB426 (antibody, IgG1, V domains shown) VH: EVQLVESGGGLVQPGGSLRLSCAASGFTFSDHHMSWVRQAPGKGLELVASISPSGDFTYYPDSVKGRFTISRDNAKNSLYLQMNSLRAEDTAVYYCARDVSPVYYWGQGALVTVSS VL: DIVMTQSPLSLPVTPGEPASISCRSSQSLLHWYLQKPGQSPQLLIYMGSQRAAGVPDRFSGSGSGTDFTLKISRVEAEDVGVYYCQSGVTFGGGTKVEIK | 4.84 fold | 4.81 fold | 0.51 fold | 4.66 fold |
| AB431 (antibody, IgG1, V domains shown, also called mAb 431) VH: EVQLVESGGGLVQPGGSLRLSCAASGFTSSNHWMSWVRQAPGKGLELVASIGPKGLGTYYPDSVKGRFTISRDNAKNSLYLQMNSLRAEDTAVYYCARDVRGWRALYYYYGMDVWGQGTTVTVSS VL: DIVMTQSPLSLPVTPGEPASISCRSSQSLLHVTGYNYLHWYLQKPGQSPQLLIYGASSRAAGVPDRFSGSGSGTDFTLKISRVEAEDVGVYYCMQSTQWPHTFGGGTKVEIK | 1.13 fold | 1 fold | 0.96 fold | 1.04 fold |
| AB428 (antibody, IgG1, V domains shown) VH: EVQLVESGGGLVQPGGSLRLSCAASGFTSSNHWMSWVRQAPGKGLELVASIGPKGLGTYYPDSVKGRFTISRDNAKNSLYLQMNSLRAEDTAVYYCASIRDYGDKKGGSWFDPWGQGTLVTVSS VL: DIVMTQSPLSLPVTPGEPASISCRSSQSLLHSSGYNFLHWYLQKPGQSPQLLIYMATNRASGVPDRFSGSGSGTDFTLKISRVEAEDVGVYYCVQDLHTLPQFGGGTKVEIK | 3.09 fold | 5.93 fold | 0.72 fold | 6.34 fold |
| AB438 (antibody, IgG1, V domains shown) VH: QVQLQESGPGLVKPSQTLSLTCTVSGVSLSNARLGVNWIRQPPGKGLEWIGYGSVTGSTDYNPSLKSRVTMSVDTSKNQFSLKVNSVTAADTAVYYCTTSYLVDTAMVTRWGQGTLVTVSS VL: EIVMTQSPATLSLSPGERATLSCRASQSLGTNLAWYQQKPGQAPRLLIYGASSRPSGIPARFSGSGSGTDFTLTISSLEPEDFAVYYCQQYDTHPLSFGGGTKVEIK | 0.23 fold | 2.34 fold | 0.15 fold | 2.83 fold |
| AB430 (antibody, IgG1, V domains shown) VH: EVQLVESGGGLVQPGGSLRLSCAASGFTLSNYPMSWVRQAPGKGLELVASTTSGSSTIYYPDSVKGRFTISRDNAKNSLYLQMNSLRAEDTAVYYCARGPDYYAPLRSYMDVWGKGTTVTVSS VL: DIVMTQSPLSLPVTPGEPASISCRSSQSLQQSEGRTYLHWYLQKPGQSPQLLIYDASKRASGVPDRFSGSGSGTDFTLKISRVEAEDVGVYYCMQVLRTPITFGGGTKVEIK | 0.86 fold | 7.44 fold | 0.51 fold | 7.58 fold |
| AB344 (antibody, IgG1, V domains shown) VH: EVQLVESGGGLVQPGGSLRLSCAASGYTFSNYGMSWVRQAPGKGLELVASISKSGSSIYYPDSVKGRFTISRDNAKNSLYLQMNSLRAEDTAVYYCARLPRLAWNYYYGMDVWGQGTTVTVSS VL: DIVMTQSPLSLPVTPGEPASISCRSSRSLVHGSGDNYLHWYLQKPGQSPQLLIYMASNRAPGVPDRFSGSGSGTDFTLKISRVEAEDVGVYYCVQTLQTPSTFGGGTKVEIK | 1.18 fold | 2.35 fold | 0.75 fold | 3.18 fold |
| AB341 (antibody, IgG1, V domains shown) VH: EVQLVESGGGLVQPGGSLRLSCAASGYTFSNYGMSWVRQAPGKGLELVASISKSGSSIYYPDSVKGRFTISRDNAKNSLYLQMNSLRAEDTAVYYCARLPRLAWNYYYGMDVWGQGTTVTVSS VL: DIVMTQSPLSLPVTPGEPASISCRSSQSLLHSNEKNYLHWYLQKPGQSPQLLIYDASKRASGVPDRFSGSGSGTDFTLKISRVEAEDVGVYYCVQDLHTPFTFGGGTKVEIK | 0.81 fold | 4.09 fold | 0.98 fold | 6.71 fold |
| AB345 (antibody, IgG1, V domains shown) VH: EVQLVESGGGLVQPGGSLRLSCAASGFTSSGYWMSWFRQAPGKGLELVASIGTAGVTYYPDSVKGRFTISRDNAKNSLYLQMNSLRAEDTAVYYCARGPHGPQQRLRFDPWGQGTLVTVSS VL: DIVMTQSPLSLPVTPGEPASISCRSSQSLLSSYGYHNLHWYLQKPGQSPQLLIYMGSIRAPGVPDRFSGSGSGTDFTLKISRVEAEDVGVYYCMQGTQAPRTFGGGTKVEIK | 3.43 fold | 8.12 fold | 0.76 fold | 9.47 fold |
| AB330 (antibody, IgG1, V domains shown, also called mAb 330) VH: QVQLVQSGAEVKKPGASVKVSCKVSGYPSPATISWVRQAPGKGLEWMGWMNPKSGYTNYAQKFQGRVTMTEDTSTDTAYMELSSLKSEDTAVYYCATLHGSGLAFDIWGQGTMVTVSS VL: DIQMTQSPSSVSASVGDRVTITCRASQDIKSDLAWYQQKPGKAPKLLIYRASARESGVPSRFSGSGSGTDFTLTISSLQPEDFANYYCQQYRSFPWSFGGGTKVEIK | 0.97 fold | 0.75 fold | 0.61 fold |  |
| AB448 (antibody, IgG1, V domains shown) VH: QVQLQESGPGLVKPSQTLSLTCTVSGLSLSNAKMGVNWIRQPPGKGLEWIGYVSTTGTTDYNPSLKSRVTMSVDTSKNQFSLKVNSVTAADTAVYYCARAGYPDVWGKGTTVTVSS VL: DIQMTQSPSSVSASVGDRVTITCRASQNIGAALAWYQQKPGKAPKLLIYGASTREYGVPSRFSGSGSGTDFTLTISSLQPEDFANYYCQQYTAYPLTFGGGTKVEIK | 0.77 fold | 2.74 fold | 0.69 fold | 3.34 fold |
| AB366 (antibody, IgG1, V domains shown) VH: QVQLQESGPGLVKPSQTLSLTCTVSGYSLTDARIGVNWIRQPPGKGLEWIGYINPSGRTDYNPSLKSRVTMSVDTSKNQFSLKVNSVTAADTAVYYCARAGYPDVWGKGTTVTVSS VL: DIQMTQSPSSVSASVGDRVTITCRASQTISRSLAWYQQKPGKAPKLLIYDASSLAGGVPSRFSGSGSGTDFTLTISSLQPEDFANYYCQQYSSYPSLFGGGTKVEIK | 0.72 fold | 10.3 fold | 0.86 fold | 13.1 fold |
| AB439 (antibody, IgG1, V domains shown) VH: EVQLVQSGAEVKKPGASVKVSCKASGYTYTGYRISWVRQAPGQGLEWMGWIDPKSGRTNYAQKLQGRGTMTTDPSTSTAYMELRSLRSDDTAVYYCAREVKQWLVPGRGVYWFDPWGQGTLVTVSS VL: ESALTQPASVSGSPGQSITISCTGTNIGLRSVSWYQQHPGKAPKLMIYDTNIRSSGVSNRFSGSKSGNTASLTISGLQAEDEADYYCSSYTSSSTDVFGGGTKLTVL |  | 1.45 fold |  | 1.45 fold |
